The source of these data is patent publication US10323078B2, “Isolated peptides and fragments thereof from fibrinogen for use as drugs, particularly in skin inflammatory diseases” (Universite Paris Descartes, priority 2015, dated 2019).

Assay [1] deals with MRC5 cells. The assay is described as follows: O2°− production by P. acnes-stimulated MRC5. The settings on record: bacteria first pretreated, 0.87 to 7 μM. Type of assay: cell-based, human. As for the experimental part: (§1) For experiences of stimulation with P. acnes, cells were incubated with the P. acnes suspension adjusted at the appropriate concentration, pre-treated for 1 h at 37° C. or not with fibrinogen recombinant peptides Fg1 and Fg2 at the concentrations 0.87, 1.75, 3.5 or 7 μM for the desired period of time at 37° C. in 5% CO2.
(§2) All cells lines (5·10^4 to 10^5 cells/well) were seeded in 96-well plates (Corning Costar, Brumath, France) and treated as previously described. After stimulation, cells were washed three times in PBS and incubated with 100 μl per wells of 5 μM DHE (for determination of O2^●−) or 5 μM H2-DCFDA (for determination of H2O2) for 30 min as described previously and fluorescence intensity was recorded every hour over a period of 5 h. Fluorescence excitation/emission maxima were for DHE: 480/610 nm and for H2-DCFDA: 507/525 nm. At the end of the experiment, the number of adherent cells was evaluated by the crystal violet assay as described below. O2^●−, and H2O2 were assayed by spectrofluorimetry on a Fusion spectrofluorimeter (PackardBell, Paris, France). Levels of ROS were calculated in each sample as follows: reactive oxygen species rate (arbitrary units/min/10^6 cells)=(fluorescence intensity [arbitrary units] at T5h—fluorescence intensity [arbitrary units] at To/300 minutes/number of adherent cells as measured by the crystal violet assay, and were expressed as arbitrary unit (A.U.).
To assess the efficacy of Fg1 recombinant peptide, the production of O2^∘− and H2O2 by HaCaT cells NHDK, THP-1, MRC5 and HDF stimulated by pretreated P. acnes strains 6919, RON and PIE was measured. The amount of ROS produced was compared to that produced by the stimulated cells with untreated bacteria. Production baseline was obtained by measuring ROS on unstimulated cells. The production of IL-1ß, IL-8, IL-12 and TNF-α was also measured in all conditions cited above. The measurement of the production of ROS is performed by spectrofluorimetry in the presence of specific fluorochromes directly on the monolayer cell. […]

A further assay concerns P. acnes RON strain. The assay is described as follows: Adhesion assay, biotinylated P. acnes binding to keratinocytes (NHDK). Type of assay: cell-based, Propionibacterium acnes. The settings on record: bacteria pretreated 0.87 to 7 μM, 1 h at 37° C. As for the experimental part:
The bacterial suspension was adjusted at 600 nm to the desired concentration, pretreated with peptides Fg1 and Fg2 at the final concentration ranging from 0.87 to 7 μM for 1 h at 37° C. and deposited on the previously saturated cells with a solution of PBS SVF 2% for 2 h. After incubation for 1 h at 37° C., unbound bacteria are removed by 3 washes with PBS and fixed bacteria are detected by a streptavidin-peroxidase solution of 0.5 μg/ml for 30 min.
Whole P. acnes bacteria are labelled by biotinylation, pre-treated or not with the peptides and contacted with the various cell lines. After removal of the unfixed bacteria, the adhesion activity was measured spectrophotometrically by using the streptavidin-peroxidase conjugate and a chromogenic substrate.
The ability of P. acnes strains 6919, RON and PIE was tested at 3 concentrations to adhere to various cells lines. It has been shown that the strains of P. acnes tested bound to the three kind of cell lines tested (keratinocytes, monocytes and fibroblast) with a maximum adhesion strength found for keratinocytes (FIG. 11). Knowing that P. acnes is able to recognize fibrinogen, it was used human and bovine whole fibrinogen to compete the interaction between the bacteria and the target cell. […] Then, the ability Fg1 to inhibit the adhesion of bacteria and RON PIE was evaluated on the 3 main types cell. […]

For assay [2], the system named is MRC5 cells. As to the kind of experiment: IL-8 production by P. acnes-stimulated MRC5 (ELISA). Type of assay: cell-based, human. Conditions: 0.87 to 7 μM. As for the experimental part:
FIG. 15: Dose-dependent inhibition of IL-8 production by fibroblast stimulated by P. acnes pre-treated by recombinant peptide. MRC5 cells were incubated for 18 h with P. acnes RON strain at a concentration adjusted to 0.2 of absorbance at 600 nm (blue bar) and with P. acnes pretreated with recombinant peptide Fg1 (light gray bar) and Fg2 (dark gray bar). IL-8 concentration was measured by ELISA as described in Materials and Methods. Control experiment was done on unstimulated HaCaT cell (red bar). Data are means±S.D. of three separate experiments. Statistical significance is indicated by * (P<0.05), ** (P<0.01), *** (P<0.001), and **** (P<0.0001), respectively.
as §1
(§3) Human IL-1ß, IL-8, IL-12, hBD-2, and TNF-α protein concentration was measured in the supernatants of stimulated cells using various ELISA Set kits (Ready-Set-Go kit from eBioscience for acne experiments, and for psoriasis experiments the Duo set IL-8 kit from R&D Systems and the BD-2 Human Development (hBD-2) from Peprotech) according to the manufacturer's instructions. We used serial dilutions of recombinant human IL-1ß, IL-8, IL-12 and TNF-α for standard curve. The optical density was determined at 450 nm at a wavelength correction of 540 nm.
(§4) To assess the efficacy of Fg1 recombinant peptide, the production of O2^∘− and H2O2 by HaCaT cells NHDK, THP-1, MRC5 and HDF stimulated by pretreated P. acnes strains 6919, RON and PIE was measured. The amount of ROS produced was compared to that produced by the stimulated cells with untreated bacteria. Production baseline was obtained by measuring ROS on unstimulated cells. The production of IL-1ß, IL-8, IL-12 and TNF-α was also measured in all conditions cited above. The measurement of the production of ROS is performed by spectrofluorimetry in the presence of specific fluorochromes directly on the monolayer cell. Measurement of cytokine production was performed in parallel on the cell culture supernatant.
(§5) Two sets of experiments were implemented: 1) The cells were stimulated (18 h at 37° C.) by P. acnes strains previously pretreated with Fg1 and Fg2 peptides at the final concentrations ranging from 0.87 to 7 μM for 1 h at 37° C.; and 2) The cells were pretreated first with Fg1 and Fg2 peptides at the final concentrations ranging from 0.87 to 7 μM for 24 h at 37° C. and stimulated (18 h at 37° C.) by P. acnes strains.
A general note: In an ELISA, binding on a coated surface is turned into a signal by an enzyme label.

For the next assay, the system named is NHDK cells. The assay is described as follows: O2°− production by P. acnes-stimulated NHDK. Type of assay: cell-based, human. The settings on record: 0.87 to 7 μM. As to the method:
as §1, §2, §4, §5

Assay [3] concerns keratinocytes and fibroblasts. As to the kind of experiment: IL-8 production by cells stimulated with P. acnes, overall statement. Type of assay: cell-based, human. The settings on record: the 3 bacterial tested strains. As to the method: as §1, §3
To assess the efficacy of Fg1 recombinant peptide, the production of O2^∘− and H2O2 by HaCaT cells NHDK, THP-1, MRC5 and HDF stimulated by pretreated P. acnes strains 6919, RON and PIE was measured. The amount of ROS produced was compared to that produced by the stimulated cells with untreated bacteria. Production baseline was obtained by measuring ROS on unstimulated cells. The production of IL-1ß, IL-8, IL-12 and TNF-α was also measured in all conditions cited above. […]

Where [4] appears, read: P. acnes 6919, set I, bacteria first pretreated.
The mark [5] stands for this setting: P. acnes 6919, set II, cells first pretreated.
Setting [6] is: P. acnes PIE, set I, bacteria first pretreated.
The mark [7] stands for this setting: P. acnes PIE, set II, cells first pretreated.
The mark [8] stands for this setting: P. acnes RON, set I, bacteria first pretreated.
Setting [9] is: P. acnes RON, set II, cells first pretreated.

B1: MKRMVSWSFHKLKTMKHLLLLLLCVFLVKSQGVNDNEEGFFSARGHRPLDKKREEAPSLRPAPPPISGGGYRARPAKAAATQKKVERKAPDAGGCLHADPDLGVLC (protein)
chain: MKRMVSWSFHKLKTMKHLLLLLLCVFLVKSQGVNDNEEGFFSARGHRPLDKKREEAPSLRPAPPPISGGGRARPAKAAATQKKVERKAPDAGGCLHADPDLGVLCMKRMVSWSFHKLKTMKHLLLLLLCVFLVKSQGVNDNEEGFFSARGHRPLDKKREEAPSLRPAPPPISGGGYRARPAKAAATQKKVERKAPDAGGCLHADPDLGVLC
modifications: GST fusion; fragment Fg1
notes: fragment of Bß chain of human fibrinogen having 106 amino acids; recombinant GST-fused peptide expressed in E. coli
As to B1, the “Inhibition of Superoxide anion (O2°−) production” value with MRC5 cells [1] (P. acnes 6919, set I) is on record as “pos”; with MRC5 cells [1] (P. acnes PIE, set I), “pos”; in the assay with MRC5 cells [1] (P. acnes RON, set I) it was “pos”; with NHDK cells (setting [4]), “pos”; in the assay with NHDK cells (setting [5]), “pos”; in the assay on NHDK cells (setting [6]) it was “pos”. Besides, the “Inhibition of Superoxide anion (O2°−) production” value in the assay on NHDK cells (setting [7]), with NHDK cells (setting [8]) and in the assay on NHDK cells (setting [9]) was “pos” each time. For the same molecule, the “Inhibition of adhesion of P. acnes RON strain” value in the assay with P. acnes RON strain is “inhibits the adhesion of RON strain in a dose-dependent manner”. The “Inhibition of Interleukine 8 (IL-8) production” value with MRC5 cells [2] (setting [4]), in the assay on MRC5 cells [2] (setting [5]), with MRC5 cells [2] (setting [6]), in the assay with MRC5 cells [2] (setting [7]), in the assay with MRC5 cells [2] (setting [8]) and in the assay on MRC5 cells [2] (setting [9]) was “pos” throughout. Besides, in assay [3], the “Decrease of the production of IL-8” value is “dose-response effect on the decrease of the production of IL-8”.
